The record followed here is article PMC10206079, “Bioinformatics of cyanophycin metabolism genes and characterization of promiscuous isoaspartyl dipeptidases that catalyze the final step of cyanophycin degradation” (Scientific Reports, 2023).

Assay [1] addresses T1, LmIadA (Leucothrix mucor, UniProt A0AA82WPE9).
T1 construct: C-terminal TEV site and 8xHis tag (cut for structural work only); expressed in E. coli BL21(DE3); homooctamer, zinc enzyme
Put plainly: coupled Asp release assay (aspartate aminotransferase / malate dehydrogenase, NADH at […] nm). As to conditions: 1 mM dipeptide, 500 nM enzyme, 100 mM HEPES pH 8.2, 20 mM KCl. The class given is biochemical.

Assay [2] has as its target Leucothrix mucor DSM2157 isoaspartyl dipeptidase (LmIadA), as crystallised (Leucothrix mucor DSM2157). Put plainly: crystal structure; LmIadA 20 mg/ml, sitting drop, 0.56 M NaH2PO4 and 1.04 M K2HPO4, 22 °C; 1.8 Å; molecular replacement with PDB 1YBQ.
Assay [3] deals with Leucothrix mucor DSM2157 isoaspartyl dipeptidase (LmIadA), purified enzyme as examined in solution (Leucothrix mucor DSM2157). In words: not stated; purified enzyme in solution; shown in Supplementary Fig. S2; the method is not given.
Assay [4] deals with Roseivivax halodurans DSM15395 isoaspartyl aminopeptidase (RhIaaA), heterodimer of subunits a and b (Roseivivax halodurans DSM15395). The assay is described as above.
Assay [5] shares this target. In words: crystal structure; RhIaaA 10 mg/ml, sitting drop, 0.1 M bis-tris propane pH 8.5, 0.2 M disodium malonate, 25% PEG3350, 4 °C; 2.7 Å; molecular replacement with PDB 2ZAL.

As to `NCCCC[C@H](NC(=O)C[C@H](N)C(=O)O)C(=O)O` [β-Asp-Lys], in assay [1], the “coupled Asp release assay (aspartate aminotransferase / malate dehydrogenase, NA)” value is on record as “it displayed no apparent preference towards β-Asp-Arg/Lys (Fig. 2a)”.
For orientation: stoichiometry N means the number of molecules, sites or subunits per partner or assembly. In assay [2], “Leucothrix mucor DSM2157 isoaspartyl dipeptidase (LmIadA), as crystallised (enzyme)” registered a stoichiometry N of 8.
“Leucothrix mucor DSM2157 isoaspartyl dipeptidase (LmIadA), purified enzyme as examined in solution”: the stoichiometry N in assay [3] came out at 8.
As for `N=C(N)NCCC[C@H](NC(=O)C[C@H](N)C(=O)O)C(=O)O` [β-Asp-Arg], in assay [1], the “coupled Asp release assay (aspartate aminotransferase / malate dehydrogenase, NA)” value was “it displayed no apparent preference towards β-Asp-Arg/Lys (Fig. 2a)”.
For the molecule “Roseivivax halodurans DSM15395 isoaspartyl aminopeptidase (RhIaaA), heterodimer of subunits a and b (complex)”, the stoichiometry N in assay [4] and in assay [5] was 2 each time.
